Measured values taken from the supplement of paper PMC10567573.

B1: HSP90AB1 (parent)
chain: TLRQKAEADKNDKAVKDLVVLLFE

Variants of: B1
Assay: protein stability index of a GFP-peptide fusion (GPS, HEK-293T) (PSI 1-6); higher = more stable
Conditions: c terminus: a fixed tail appended
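Further: lentivirally expressed fusions sorted by FACS into six bins by GFP to DsRed ratio, PSI derived from sequencing read proportions per bin multiplied by bin number.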

Row | Variant | protein stability index
1 | D9E | 2.74
2 | D9K | 2.51
3 | D9I | 2.26
4 | D9G | 3.17
5 | D9P | 2.48
6 | D9H | 2.95
7 | D9S | 2.92
8 | D9Q | 3.23
9 | D9F | 2.52
10 | D9N | 2.51
11 | D9A | 2.98
12 | A6K | 2.71
13 | A6W | 3.32
14 | A6T | 2.85
15 | A6M | 2.93
16 | A6Q | 2.68
17 | A6E | 3.33
18 | A6I | 3.35
19 | A6R | 2.69
20 | A6D | 3.41
21 | A6G | 2.72
22 | A6P | 3.29
23 | A6N | 2.61
24 | A6C | 2.91

Row | Variant | protein stability index
25 | A6F | 2.74
26 | R3S | 3.58
27 | R3I | 3.18
28 | R3T | 3.59
29 | R3Y | 2.35
30 | R3W | 2.6
31 | R3G | 2.72
32 | R3E | 3.17
33 | R3F | 2.8
34 | R3N | 3.1
35 | R3H | 2.84
36 | R3K | 3.36
37 | R3L | 3.11
38 | R3Q | 3.11
39 | N11R | 3.15
40 | N11K | 2.43
41 | N11S | 2.95
42 | N11A | 3
43 | N11L | 2.83
44 | N11D | 2.84
45 | N11E | 3.21
46 | N11F | 3.09
47 | N11Q | 2.62
48 | N11G | 3.13

Row | Variant | protein stability index
49 | N11C | 2.88
50 | N11T | 3.37
51 | N11P | 2.58
52 | N11M | 3.11
53 | N11I | 2.98
54 | N11V | 2.89
55 | F23N | 4.73
56 | F23G | 4.87
57 | F23M | 3.37
58 | F23C | 3.71
59 | F23L | 3.27
60 | F23H | 4.5
61 | F23I | 2.88
62 | F23K | 4.69
63 | F23A | 3.7
64 | F23D | 5.38
65 | F23E | 5.22
66 | D12L | 2.73
67 | D12E | 2.95
68 | D12R | 3.48
69 | D12A | 2.44
70 | D12C | 2.59
71 | D12Q | 2.7
72 | D12I | 2

Row | Variant | protein stability index
73 | D12F | 2.24
74 | D12K | 1.99
75 | D12H | 2.56
76 | D12S | 3.17
77 | D12T | 2.22
78 | D12W | 2.07
79 | D12P | 2.49
80 | D12G | 2.48
81 | D12N | 2.62
82 | V19P | 4.38
83 | V19I | 3.5
84 | V19E | 5.04
85 | V19K | 4.26
86 | V19Q | 4.23
87 | V19R | 4.18
88 | V19C | 3.16
89 | V19D | 4.61
90 | V19N | 3.91
91 | V19S | 4.08
92 | V19M | 2.44
93 | V19F | 2.96
94 | V19G | 4.16
95 | V19T | 4.13
96 | V19H | 4.22

Row | Variant | protein stability index
97 | V19A | 3.72
98 | V19L | 2.68
99 | V19W | 2.7
100 | V19Y | 3.1
101 | V15Q | 2.86
102 | V15T | 3.11
103 | V15A | 3.1
104 | V15W | 2.64
105 | V15K | 3.27
106 | V15M | 3.47
107 | V15F | 2.91
108 | V15G | 3.48
109 | V15L | 2.81
110 | V15S | 3.09
111 | V15E | 3.37
112 | V15Y | 3.43
113 | V15D | 3.2
114 | V15P | 2.54
115 | V15R | 2.49
116 | V15N | 3.12
117 | V15I | 2.48
118 | V20R | 2.88
119 | V20L | 3.13
120 | V20C | 3.53

Row | Variant | protein stability index
121 | V20F | 2.96
122 | V20H | 3.43
123 | V20T | 3.48
124 | V20S | 4.6
125 | V20Q | 4.1
126 | V20N | 4.46
127 | V20A | 4.47
128 | V20W | 2.58
129 | V20D | 5.3
130 | V20M | 3.77
131 | V20P | 4.05
132 | V20G | 3.64
133 | V20Y | 2.7
134 | V20E | 5.2
135 | L22N | 4.2
136 | L22F | 2.84
137 | L22V | 3.73
138 | L22P | 4.97
139 | L22K | 4.47
140 | L22R | 3.9
141 | L22E | 4.86
142 | L22S | 4.34
143 | L22Y | 2.78
144 | L22C | 3.82

Row | Variant | protein stability index
145 | L22M | 3.15
146 | L22Q | 4.84
147 | L22G | 4.5
148 | L22T | 3.96
149 | L22D | 4.86
150 | L22H | 3.79
151 | L18N | 4.19
152 | L18Q | 4.03
153 | L18S | 3.9
154 | L18F | 2.24
155 | L18R | 3.19
156 | L18V | 2.24
157 | L18E | 4.04
158 | L18W | 3.19
159 | L18H | 3.3
160 | L18M | 3.29
161 | L18G | 3.69
162 | L18D | 4.2
163 | L18I | 2.95
164 | L18C | 2.85
165 | L18Y | 2.87
166 | L18K | 3.44
167 | L18P | 4.21
